Molecular target: Biotinylated FcγRIIIa (human) (UniProt P08637)
Assay: BLI

UniProt P08637, sequence (P08637 21-186): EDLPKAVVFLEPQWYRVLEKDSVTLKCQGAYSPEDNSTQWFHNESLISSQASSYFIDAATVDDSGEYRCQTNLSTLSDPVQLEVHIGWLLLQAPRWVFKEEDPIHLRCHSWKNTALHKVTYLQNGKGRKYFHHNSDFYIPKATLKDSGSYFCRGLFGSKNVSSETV

## Mogamulizumab, anti-CCR4 humanized IgG1 (antibody)
  fold larger kon than Ada: 3.5 fold
  fold larger kon than Rtx: 4 fold
  fold lower KD than Ada: > 20 fold
  fold lower KD than Rtx: > 20 fold
  fold smaller koff than Ada: 6 fold
  fold smaller koff than Rtx: 5 fold

From PMC8932917
